Experimental data reported in article PMC8274477 (Frontiers in Cell and Developmental Biology, 2021).

B1: DECR2 (natural protein, human, UniProt Q9NUI1 1-292, looked up)
chain: MAQPPPDVEGDDCLPAYRHLFCPDLLRDKVAFITGGGSGIGFRIAEIFMRHGCHTVIASRSLPRVLTAARKLAGATGRRCLPLSMDVRAPPAVMAAVDQALKEFGRIDILINCAAGNFLCPAGALSFNAFKTVMDIDTSGTFNVSRVLYEKFFRDHGGVIVNITATLGNRGQALQVHAGSAKAAVDAMTRHLAVEWGPQNIRVNSLAPGPISGTEGLRRLGGPQASLSTKVTASPLQRLGNKTEIAHSVLYLASPLASYVTGAVLVADGGAWLTFPNGVKGLPDFASFSAKL
notes: DECR2; protein on the human proteome microarray; source: spotted on the HuProt human proteome microarray
B2: DNALI1 (natural protein, human, UniProt O14645 1-258, looked up)
chain: MIPPADSLLKYDTPVLVSRNTEKRSPKARLLKVSPQQPGPSGSAPQPPKTKLPSTPCVPDPTKQAEEILNAILPPREWVEDTQLWIQQVSSTPSTRMDVVHLQEQLDLKLQQRQARETGICPVRRELYSQCFDELIREVTINCAERGLLLLRVRDEIRMTIAAYQTLYESSVAFGMRKALQAEQGKSDMERKIAELETEKRDLERQVNEQKAKCEATEKRESERRQVEEKKHNEEIQFLKRTNQQLKAQLEGIIAPKK
notes: DNALI1; protein on the human proteome microarray; source: spotted on the HuProt human proteome microarray
B3: EIF4H (natural protein)
chain: not shown
notes: EIF4H; protein on the human proteome microarray; source: spotted on the HuProt human proteome microarray
B4: FAM49B (natural protein, human, UniProt Q9NUQ9 1-324, looked up)
chain: MGNLLKVLTCTDLEQGPNFFLDFENAQPTESEKEIYNQVNVVLKDAEGILEDLQSYRGAGHEIREAIQHPADEKLQEKAWGAVVPLVGKLKKFYEFSQRLEAALRGLLGALTSTPYSPTQHLEREQALAKQFAEILHFTLRFDELKMTNPAIQNDFSYYRRTLSRMRINNVPAEGENEVNNELANRMSLFYAEATPMLKTLSDATTKFVSENKNLPIENTTDCLSTMASVCRVMLETPEYRSRFTNEETVSFCLRVMVGVIILYDHVHPVGAFAKTSKIDMKGCIKVLKDQPPNSVEGLLNALRYTTKHLNDETTSKQIKSMLQ
notes: FAM49B; protein on the human proteome microarray; source: spotted on the HuProt human proteome microarray
B5: GAPDH (natural protein)
chain: not shown
notes: GAPDH; protein on the human proteome microarray; source: spotted on the HuProt human proteome microarray
B6: GBGT1 (natural protein, human, UniProt Q8N5D6 1-347, looked up)
chain: MHRRRLALGLGFCLLAGTSLSVLWVYLENWLPVSYVPYYLPCPEIFNMKLHYKREKPLQPVVWSQYPQPKLLEHRPTQLLTLTPWLAPIVSEGTFNPELLQHIYQPLNLTIGVTVFAVGKYTHFIQSFLESAEEFFMRGYRVHYYIFTDNPAAVPGVPLGPHRLLSSIPIQGHSHWEETSMRRMETISQHIAKRAHREVDYLFCLDVDMVFRNPWGPETLGDLVAAIHPSYYAVPRQQFPYERRRVSTAFVADSEGDFYYGGAVFGGQVARVYEFTRGCHMAILADKANGIMAAWREESHLNRHFISNKPSKVLSPEYLWDDRKPQPPSLKLIRFSTLDKDISCLRS
notes: GBGT1; protein on the human proteome microarray; source: spotted on the HuProt human proteome microarray
B7: GCLM (natural protein, human, UniProt P48507 1-274, looked up)
chain: MGTDSRAAKALLARARTLHLQTGNLLNWGRLRKKCPSTHSEELHDCIQKTLNEWSSQINPDLVREFPDVLECTVSHAVEKINPDEREEMKVSAKLFIVESNSSSSTRSAVDMACSVLGVAQLDSVIIASPPIEDGVNLSLEHLQPYWEELENLVQSKKIVAIGTSDLDKTQLEQLYQWAQVKPNSNQVNLASCCVMPPDLTAFAKQFDIQLLTHNDPKELLSEASFQEALQESIPDIQAHEWVPLWLLRYSVIVKSRGIIKSKGYILQAKRRGS
notes: GCLM; protein on the human proteome microarray; source: spotted on the HuProt human proteome microarray
B8: GSTZ1 (natural protein, human, UniProt O43708 1-216, looked up)
chain: MQAGKPILYSYFRSSCSWRVRIALALKGIDYKTVPINLIKDRGQQFSKDFQALNPMKQVPTLKIDGITIHQSLAIIEYLEEMRPTPRLLPQDPKKRASVRMISDLIAGGIQPLQNLSVLKQVGEEMQLTWAQNAITCGFNALEQILQSTAGIYCVGDEVTMADLCLVPQVANAERFKVDLTPYPTISSINKRLLVLEAFQVSHPCRQPDTPTELRA
notes: GSTZ1; protein on the human proteome microarray; source: spotted on the HuProt human proteome microarray
B9: GTF2B (natural protein, human, UniProt Q00403 1-316, looked up)
chain: MASTSRLDALPRVTCPNHPDAILVEDYRAGDMICPECGLVVGDRVIDVGSEWRTFSNDKATKDPSRVGDSQNPLLSDGDLSTMIGKGTGAASFDEFGNSKYQNRRTMSSSDRAMMNAFKEITTMADRINLPRNIVDRTNNLFKQVYEQKSLKGRANDAIASACLYIACRQEGVPRTFKEICAVSRISKKEIGRCFKLILKALETSVDLITTGDFMSRFCSNLCLPKQVQMAATHIARKAVELDLVPGRSPISVAAAAIYMASQASAEKRTQKEIGDIAGVADVTIRQSYRLIYPRAPDLFPTDFKFDTPVDKLPQL
notes: GTF2B; protein on the human proteome microarray; source: spotted on the HuProt human proteome microarray
B10: HTATIP2 (natural protein, human, UniProt Q9BUP3 1-242, looked up)
chain: MAETEALSKLREDFRMQNKSVFILGASGETGRVLLKEILEQGLFSKVTLIGRRKLTFDEEAYKNVNQEVVDFEKLDDYASAFQGHDVGFCCLGTTRGKAGAEGFVRVDRDYVLKSAELAKAGGCKHFNLLSSKGADKSSNFLYLQVKGEVEAKVEELKFDRYSVFRPGVLLCDRQESRPGEWLVRKFFGSLPDSWASGHSVPVVTVVRAMLNNVVRPRDKQMELLENKAIHDLGKAHGSLKP
notes: HTATIP2; protein on the human proteome microarray; source: spotted on the HuProt human proteome microarray
B11: ISG20 (natural protein)
chain: not shown
notes: ISG20; protein on the human proteome microarray; source: spotted on the HuProt human proteome microarray
B12: KHDRBS3 (natural protein, human, UniProt O75525 1-346, looked up)
chain: MEEKYLPELMAEKDSLDPSFTHALRLVNQEIEKFQKGEGKDEEKYIDVVINKNMKLGQKVLIPVKQFPKFNFVGKLLGPRGNSLKRLQEETLTKMSILGKGSMRDKAKEEELRKSGEAKYFHLNDDLHVLIEVFAPPAEAYARMGHALEEIKKFLIPDYNDEIRQAQLQELTYLNGGSENADVPVVRGKPTLRTRGVPAPAITRGRGGVTARPVGVVVPRGTPTPRGVLSTRGPVSRGRGLLTPRARGVPPTGYRPPPPPPTQETYGEYDYDDGYGTAYDEQSYDSYDNSYSTPAQSGADYYDYGHGLSEETYDSYGQEEWTNSRHKAPSARTAKGVYRDQPYGRY
notes: KHDRBS3; protein on the human proteome microarray; source: spotted on the HuProt human proteome microarray
B13: KLHDC9 (natural protein, human, UniProt Q8NEP7 1-349, looked up)
chain: MAVAVPPGRAAGSGWAWRPVARDALLARAFHSCTELRGRFYLVGGLLAGGAREPSSDTVVFDPARGQAVRLGARGSPPRSHHDAAPVDGRWLCVVGGWDGSRRLATVTALDTERGVWEAWTGTPGDCPPAGLSSHTCTRISDRELQVAGREGGIHTQRRYGSIYTLRLDPSARTYCYKQEGCHTASRSGHCAALLQTPGPHPGHQLLLFGGCNLAEPEVAGHWSHGKIKEEPPVAPHLMEQLARLVSSGQGSQKGPHGLRHHSCSVVGPFAVLFGGETLTRARDTICNDLYIYDTRTSPPLWFHFPCADRGMKRMGHRTCLWNDQLYLVGGFGEDGRTASPQVCILDFI
notes: KLHDC9; protein on the human proteome microarray; source: spotted on the HuProt human proteome microarray
B14: LOR (natural protein, human, UniProt P23490 1-312, looked up)
chain: MSYQKKQPTPQPPVDCVKTSGGGGGGGGSGGGGCGFFGGGGSGGGSSGSGCGYSGGGGYSGGGCGGGSSGGGGGGGIGGCGGGSGGSVKYSGGGGSSGGGSGCFSSGGGGSGCFSSGGGGSSGGGSGCFSSGGGGSSGGGSGCFSSGGGGFSGQAVQCQSYGGVSSGGSSGGGSGCFSSGGGGGSVCGYSGGGSGCGGGSSGGSGSGYVSSQQVTQTSCAPQPSYGGGSSGGGGSGGSGCFSSGGGGGSSGCGGGSSGIGSGCIISGGGSVCGGGSSGGGGGGSSVGGSGSGKGVPICHQTQQKQAPTWPSK
notes: LOR; protein on the human proteome microarray; source: spotted on the HuProt human proteome microarray
B15: MAGEB1 (natural protein, human, UniProt P43366 1-347, looked up)
chain: MPRGQKSKLRAREKRRKAREETQGLKVAHATAAEKEECPSSSPVLGDTPTSSPAAGIPQKPQGAPPTTTAAAAVSCTESDEGAKCQGEENASFSQATTSTESSVKDPVAWEAGMLMHFILRKYKMREPIMKADMLKVVDEKYKDHFTEILNGASRRLELVFGLDLKEDNPSGHTYTLVSKLNLTNDGNLSNDWDFPRNGLLMPLLGVIFLKGNSATEEEIWKFMNVLGAYDGEEHLIYGEPRKFITQDLVQEKYLKYEQVPNSDPPRYQFLWGPRAYAETTKMKVLEFLAKMNGATPRDFPSHYEEALRDEEERAQVRSSVRARRRTTATTFRARSRAPFSRSSHPM
notes: MAGEB1; protein on the human proteome microarray; source: spotted on the HuProt human proteome microarray
B16: MIF (natural protein, human, UniProt P14174 1-115, looked up)
chain: MPMFIVNTNVPRASVPDGFLSELTQQLAQATGKPPQYIAVHVVPDQLMAFGGSSEPCALCSLHSIGKIGGAQNRSYSKLLCGLLAERLRISPDRVYINYYDMNAANVGWNNSTFA
notes: MIF; protein on the human proteome microarray; source: spotted on the HuProt human proteome microarray
B17: MPST (natural protein, human, UniProt P25325 1-297, looked up)
chain: MASPQLCRALVSAQWVAEALRAPRAGQPLQLLDASWYLPKLGRDARREFEERHIPGAAFFDIDQCSDRTSPYDHMLPGAEHFAEYAGRLGVGAATHVVIYDASDQGLYSAPRVWWMFRAFGHHAVSLLDGGLRHWLRQNLPLSSGKSQPAPAEFRAQLDPAFIKTYEDIKENLESRRFQVVDSRATGRFRGTEPEPRDGIEPGHIPGTVNIPFTDFLSQEGLEKSPEEIRHLFQEKKVDLSKPLVATCGSGVTACHVALGAYLCGKPDVPIYDGSWVEWYMRARPEDVISEGRGKTH
notes: MPST; protein on the human proteome microarray; source: spotted on the HuProt human proteome microarray
B18: MSI2 (natural protein)
chain: not shown
notes: MSI2; protein on the human proteome microarray; source: spotted on the HuProt human proteome microarray
B19: NABP1 (natural protein, human, UniProt Q96AH0 1-204, looked up)
chain: MNRVNDPLIFIRDIKPGLKNLNVVFIVLEIGRVTKTKDGHEVRSCKVADKTGSITISVWDEIGGLIQPGDIIRLTRGYASMWKGCLTLYTGRGGELQKIGEFCMVYSEVPNFSEPNPDYRGQQNKGAQSEQKNNSMNSNMGTGTFGPVGNGVHTGPESREHQFSHAGRSNGRGLINPQLQGTASNQTVMTTISNGRDPRRAFKR
notes: NABP1; protein on the human proteome microarray; source: spotted on the HuProt human proteome microarray
B20: NAT6 (natural protein, human, UniProt Q93015 1-286, looked up)
chain: MELILSTSPAELTLDPACQPKLPLDSTCQPEMTFNPGPTELTLDPEHQPEETPAPSLAELTLEPVHRRPELLDACADLINDQWPRSRTSRLHSLGQSSDAFPLCLMLLSPHPTLEAAPVVVGHARLSRVLNQPQSLLVETVVVARALRGRGFGRRLMEGLEVFARARGFRKLHLTTHDQVHFYTHLGYQLGEPVQGLVFTSRRLPATLLNAFPTAPSPRPPRKAPNLTAQAAPRGPKGPPLPPPPPLPECLTISPPVPSGPPSKSLLETQYQNVRGRPIFWMEKDI
notes: NAT6; protein on the human proteome microarray; source: spotted on the HuProt human proteome microarray
B21: NECAP2 (natural protein, human, UniProt Q9NVZ3 1-263, looked up)
chain: MEESGYESVLCVKPDVHVYRIPPRATNRGYRAAEWQLDQPSWSGRLRITAKGQMAYIKLEDRTSGELFAQAPVDQFPGTAVESVTDSSRYFVIRIEDGNGRRAFIGIGFGDRGDAFDFNVALQDHFKWVKQQCEFAKQAQNPDQGPKLDLGFKEGQTIKLNIANMKKKEGAAGNPRVRPASTGGLSLLPPPPGGKTSTLIPPPGEQLAVGGSLVQPAVAPSSGGAPVPWPQPNPATADIWGDFTKSTGSTSSQTQPGTGWVQF
notes: NECAP2; protein on the human proteome microarray; source: spotted on the HuProt human proteome microarray

Molecular target: T1, OTULIN (OTU deubiquitinase with linear linkage specificity, FAM105B), His-tagged, biotin-labelled (human, UniProt Q96BN8 1-352, biotin (label; sites not stated))
T1 construct: OTULIN (FAM105B), cDNA in pET28a; also called HIS-OTULIN; source: E. coli BL21 (DE3), purified (His-tag Purification Resin), labelled with biotin; not shown: His6, N-terminal, kept
Assay: peptide or protein array; HuProt human proteome microarray; 5 ug/5 ml biotin-labelled LUBAC or OTULIN in solution, 1 h at room temperature; Cy5-streptavidin, scanned at 635 nm; BSA as negative control; hits: Z-score >= 3 and I_(Mean_Ratio) >= 1.4
Settings: both partners purified

Binder	binding result
B1	binds
B2	binds
B3	binds
B4	binds
B5	binds
B6	binds
B7	binds
B8	binds
B9	binds
B10	binds
B11	binds
B12	binds
B13	binds
B14	binds
B15	binds
B16	binds
B17	binds
B18	binds
B19	binds
B20	binds
B21	binds
